This series has as its target T1, CPF (clone 113) (Homo sapiens).
T1 chain: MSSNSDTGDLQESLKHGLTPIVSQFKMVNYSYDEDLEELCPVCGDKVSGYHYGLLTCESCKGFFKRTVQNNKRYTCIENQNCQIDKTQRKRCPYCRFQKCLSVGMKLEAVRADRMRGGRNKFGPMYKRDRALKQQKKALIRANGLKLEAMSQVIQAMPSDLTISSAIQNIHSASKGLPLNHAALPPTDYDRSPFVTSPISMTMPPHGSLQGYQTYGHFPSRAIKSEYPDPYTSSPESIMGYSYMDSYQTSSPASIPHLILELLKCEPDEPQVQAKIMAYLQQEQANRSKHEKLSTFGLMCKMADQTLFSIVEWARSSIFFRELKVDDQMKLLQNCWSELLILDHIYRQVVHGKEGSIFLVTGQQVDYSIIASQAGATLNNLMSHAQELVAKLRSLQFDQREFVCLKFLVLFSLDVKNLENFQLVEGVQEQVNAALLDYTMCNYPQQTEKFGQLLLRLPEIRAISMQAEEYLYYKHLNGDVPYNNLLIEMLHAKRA
The experiment in a line: EMSA; same DNA sequence as endogenous protein; exact probe not stated; complex disrupted by anti-CPF antibody. The conditions noted are these: tags: TNT in vitro transcription/translation; label: 32P. The text has this:
Characterization of CPF. Clone #113 encodes a full length polypeptyde of 495 amino acids, with an in-frame stop codon 30 nucleotides upstream of the first ATG. We named the protein as CPF for CYP7 Promoter-binding Factor. […] The closest homologs of CPF are the mouse version of the family, LRH-1 (SEQ ID NOS:7, 8)and a human variant, hFTF (SEQ ID NOS:9, 10). To confirm the cloned CPF is the factor responsible for the CYP7 promoter binding activity, in vitro translated CPF was used side-by-side with the HepG2 nuclear extracts in gel shift experiments. We found in vitro translated CPF recognized the same DNA sequence as the endogenous protein does and the gel shift patterns between these two appear to be identical. Antibodies raised against a peptide containing the Ftz-F1 box were used in gel shift experiments. We found the DNA-protein complex formed either with HepG2 nuclear extracts or with in vitro translated CPF was disrupted by the specific antibody but not by preimmune serum. Furthermore, the antibody recognized a hepatic-specific cellular protein that comigrates with the in vitro translated CPF. The endogenous gene product recognized by the Ftz-F1-specific antibody is apparently hepatic specific since there is no corresponding protein in 293 cells.

B1: CYP7 promoter wild-type oligo (dsDNA)
DNA 1: TCTGATACCTGTGGACTTAGTTCAAGGCCAGTTA
DNA 2: TAACTGGCCTTGAACTAAGTCCACAGGTATCAGA
With B1, the binding result is reported as “binds”.

The values above are taken from patent US6297019, “Recombinant polynucleotides encoding CYP7 promoter-binding factors” (Tularik Inc.).
